Like-named read-outs stand apart in the source and are kept apart here.
Experiments:
Assay in all cases: ELISA
[1] = molecular target: glycosylated soluble gp120 (rgp 120 HIV-1 MN, baculovirus) (HIV-1 MN) (UniProt P05877)
ribonuclease B = molecular target: T1, ribonuclease B (UniProt P61823 27-150)
T1 construct: also called RNase B
T1 sequence (looked up): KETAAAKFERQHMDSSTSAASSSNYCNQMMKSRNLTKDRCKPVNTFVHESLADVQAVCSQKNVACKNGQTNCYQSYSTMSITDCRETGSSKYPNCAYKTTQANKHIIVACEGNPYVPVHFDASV

[2] = molecular target: glycosylated soluble gp120 (rgp 120 HIV-1 MN, baculovirus) (HIV-1 MN), P05877; conditions: remark: other sources report otherwise

## Nested Cyanovirin-N (Nested CV-N) (from UniProt P81180 1-50; P81180 1-101) (designed binder)
[1]
  EC50: 1.29 nM
Ribonuclease B
  EC50: 13 nM

B1: wild-type Cyanovirin-N (WT CV-N), P81180 1-101 (natural protein)
chain: LGKFSQTCYNSAIQGSVLTSTCERTNGGYNTSSIDLNSVIENVDGSLKWQPSNFIETCRNTQLAGSSELAAECKTRAQQFVSTKINLDDHIANIDGTLKYE
modifications: here or on the partner: glycosylated (oligomannose glycans; about 25 sites per monomer)
[2]
  EC50: 1.66 nM

B2: wild-type Cyanovirin-N (WT CV-N) (natural protein)
chain: B1 chain
Ribonuclease B; both partners purified
  EC50: 17 nM

— publication PMC4926178 (Viruses, 2016)
